Experimental data as given in patent publication US20090011981A1, “Novel Inhibitors of Angiogenesis” (K.U. LEUVEN RESEARCH & DEVELOPMENT, priority 2004, published 2009).
Values joined by “and” are separate entries in the source; they are usually repeats but may differ in a detail not shown here. Equal entries are not always repeated.

B1: PF4: Platelet Factor 4, CXC chemokine; authentic natural human PF4 purified from platelets as comparator (protein)
chain: EAEEDGDLQCLCVKTTSQVRPRHITSLEVIKAGPHCPTAQLIATLKNGRKICLDLQAPLYKKIIKKLLES
B2: PF4var1: natural and recombinant versions of the human natural variant of the PF4 protein; 70 amino acid mature form, SEQ ID NO: 1 (protein, listed as Homo sapiens)
chain: EAEEDGDLQCLCVKTTSQVRPRHITSLEVIKAGPHCPTAQLIATLKNGRKICLDLQALLYKKIIKEHLES
modifications: mat_peptide (1)..(70) PFvar1

What was measured:
[1] = tested on: bFGF-induced angiogenesis (rat cornea neovascularization); assay: Rat corneal micropocket assay for angiogenesis; format: in vivo
Procedure: In vivo angiogenesis was assessed using the rat cornea micropocket assay as previously described [Addison et al. cited above]. Briefly, reagents were diluted in PBS plus 0.25% serum albumin to their final concentration per pellet of Hydron casting solution (Hydro Med Sciences, New Brunswick N.J.). 5 μl aliquots were pipetted onto the flat surface of a sterile polypropylene specimen container and were allowed to polymerize overnight under UV light in a laminar flow hood. Prior to implantation, the pellets were rehydrated with normal saline. Animals were given 150 mg/kg ketamine and 250 μg/kg atropine, and the corneas were anesthetized with 0.5% proparacaine hydrochloride ophthalmic solution followed by implantation of the Hydron pellet into an intracorneal pocket (1-2 mm from the limbus). Six days after implantation, animals received heparin (1000 U) and ketamine (150 mg/kg) i.p. 30 min prior to sacrifice, followed by perfusion with 10 ml of colloidal carbon via the left ventricle. Corneas were then harvested and photographed. […] Sustained directional ingrowth of capillary sprouts and hairpin loops toward the implant were considered positive neovascularization responses.

[2] = tested on: Human lung microvascular endothelial cells (HMVEC-L); assay: Endothelial cell chemotaxis assay (bFGF- or CXCL8-induced HMVEC migration); format: cell-based; details: for inhibition of CXCL8-induced HMVEC chemotaxis: CXCL8 80 ng/ml; for inhibition of the migration of the cells: at a concentration of 50 ng/ml; for inhibition of bFGF-induced HMVEC chemotaxis: bFGF 50 ng/ml; for migration of HMVEC toward bFGF or CXCL8 (FIG. 4 Panel C): test protein 50 ng/ml, bFGF 50 ng/ml or CXCL8 80 ng/ml
Procedure: Human lung microvascular endothelial cells (HMVEC-L) were obtained from Clonetics (Walkersville, Md.), and were cultured following the manufacturer's instructions in EBM-2 medium supplemented with the EGM-2-MV “bulletkit” containing FCS, ascorbic acid, hydrocortisone, fibroblast growth factor (FGF), vascular endothelial growth factor (VEGF), insulin-like growth factor I (IGF-I) and epidermal growth factor (EGF). Endothelial cell chemotaxis assays were performed as previously described [Addison et al. (2002) J Immunol 165, 5269-5277]. Cells were harvested by trypsinization, resuspended in EBM-2 medium without growth factors with 2% FCS added. An aliquot of 160 μl containing 5×10^5 cells/ml was added to each of the lower wells of a 12-well chemotaxis chamber (Neuro Probe Inc., Cabin John Md.). The chambers were assembled (by placing 0.1% gelatin coated 5 μm pore size filters over the lower wells, followed by a gasket and the upper chamber) and incubated at 37° C. in a CO2 incubator for 2 h in an inverted position. The chambers were then turned upright, and 100 μl aliquots of sample dilutions were added to the upper wells of the chamber. As endothelial cell chemoattractants CXCL8 and bFGF (both from Peprotech) were used. The chambers were placed in a 37° C. CO2 incubator for 2 h at which time the filters were removed, and subjected to Diff-Quik staining. The total number of migrated cells was counted in 15 separate fields of view under 400× power.

[3] = Heparin-Sepharose affinity chromatography (heparin affinity); format: binding; details: for salt concentration at elution from heparin-Sepharose column: linear NaCl gradient 0.05-2 M, pH 7.4
Procedure: For large scale PF4 production, outdated platelets (Red Cross blood transfusion centre, Belgium) were stimulated with 1 U/ml thrombin (Sigma, St. Louis, Mo.) for 2 h at 37° C. in PBS. The conditioned medium was subsequently purified by a purification procedure previously described [Struyf et al (2003), cited above, Van Damme et al. (1992) J Exp Med 176, 59-65; Struyf et al. (2000) in Balkwill, F. ed. Cytokine molecular biology, a practical approach. Oxford, UK, Oxford University Press, pp 73-88]. The conditioned media (1 to 5 liters) were first concentrated and partially purified by adsorption to silica (“Silica Matrex”; pore size 100 A, particle size 35-70 μm; Millipore, Billerica, Mass.; 10 g/l conditioned medium). After 2 h of magnetical stirring at 4° C., the silicic acid was sedimented by centrifugation and subsequently washed once with PBS and once with PBS containing 1 M NaCl pH 7.4. Elution of proteins from the silica matrix was done by magnetically stirring three consecutive times with 100 ml of PBS containing 1.4 M NaCl and 50% ethylene glycol pH 7.4 during 30 min at 4° C. A second elution with 0.3 M glycine/HCl pH 2.0 buffer (2×100 ml) was performed to improve recovery of chemokines. Subsequently, the pooled eluates (500 ml) were dialyzed against equilibration/loading buffer (50 mM Tris/HCl-50 mM NaCl, pH 7.4) before fractionation by heparin-Sepharose chromatography (Amersham Pharmacia Biotech, Uppsala, Sweden). Proteins were eluted from the column in a linear NaCl gradient (0.05-2 M NaCl in the loading buffer; 5 ml-fractions). For all fractions, the protein concentration was determined by a Coomassie blue G-250 binding assay using the Bio-Rad commercial kit (Bio-Rad Laboratories, Hercules, Calif.). […] Purified fractions were analyzed by SDS-PAGE under reducing conditions to determine purity. […]

murine melanoma cells = details: systemic treatment, mice injected i.v. with murine melanoma cells; cited from earlier work
B16 melanoma tumors = assay: Intratumoral injection of B16 melanoma tumors; format: in vivo, athymic nu/nu mice; details: 1 μg recombinant human PF4var1, 6 intratumoral injections over 2 weeks, B16 melanoma in nu/nu mice
Procedure: Animal experiments were approved by the local animal ethics committee (University of Leuven), and conducted in conformity with the Belgian and European guidelines for the protection of animals used for scientific purposes. Experiments were performed with 6 to 8 weeks old female athymic nu/nu mice (NMRI background) kept in a specific pathogen-free environment (Elevage Janvier, Le Genest Saint Isle, France). Two consecutive experiments were performed, the first comprising 20 mice, the second 18 mice. B16 melanoma cells in log phase (2×10^6 cells resuspended in 200 μl of PBS) were injected subcutaneously on day 1 in the right dorsal flank. Animals were injected at the tumor site with 50 μl of test sample, i.e. endotoxin-free saline (0.9% NaCl, Baxter, Lessines, Belgium), 5 pg of natural human PF4 or 1 μg of recombinant human PF4var1 in saline. Treatment started on day 3, in total 6 intratumoral injections were administered three times a week over a period of 2 weeks. All animals were observed three times a week, the tumor dimensions were measured with calipers and tumor size was calculated (tumor volume=4/3Πab^2; a is the smallest diameter/2 and b is the largest diameter/2 in millimeters). At the end of the experiments tumor size was calculated more precisely after dissection of the tumor using the formula 4/3Πabc (a, b and c width/2, length/2 and depth/2, respectively). […]

[4] = 50 ng of the cytokine alone, six days after implantation
[5] = 50 ng combined with bFGF (50 ng)

Molecule | No of neg pellets (no neovascularization / total pellets implanted) [1, 4] | No of pos pellets (angiogenic response / total pellets implanted) [1, 4] | inhibition of CXCL8-induced HMVEC chemotaxis ([2]; test protein 300 ng/ml) | inhibition of the migration of the cells [2] | inhibition of migration of HMVEC ([2]; at concentrations as high as 300 ng/ml, toward bFGF or CXCL8) | inhibition of bFGF-induced HMVEC chemotaxis ([2]; test protein 300 ng/ml) | migration of HMVEC toward bFGF or CXCL8 (FIG. 4 Panel C) [2] | % inhibition of bFGF-induced angiogenesis [1, 5] | No of neg pellets (no neovascularization / total pellets implanted) [1, 5] | No of pos pellets (angiogenic response / total pellets implanted) [1, 5] | salt concentration at elution from heparin-Sepharose column [3] | dose for optimal inhibition of metastases or lung weight (murine melanoma cells) | inhibition of CXCL8-induced HMVEC chemotaxis ([2]; test protein 10-100 ng/ml) | potency on angiogenesis relative to PF4 ([2]; PF4var1 versus PF4) | inhibition of bFGF-induced HMVEC chemotaxis ([2]; test protein 10-100 ng/ml) | concentration giving an inhibition of 50% of the migration of HMVEC ([2]; chemotaxis of HMVEC toward bFGF or CXCL8) | tumor growth (B16 melanoma tumors) | heparin binding affinity compared with PF4 ([3]; based on elution at lower salt concentrations from heparin-Sepharose)
bFGF: Fibroblast growth factor used as endothelial cell chemoattractant and angiogenesis inducer (Peprotech) [reference compound] | 0/25 | 25/25 |  |  |  |  |  |  |  |  |  |  |  |  |  |  |  | 
B1 | 17/22 | 5/22 | failed to inhibit | ~80% | practically no inhibition | failed to inhibit | reduce migration | 23% | 5 of 22 and 5/22 | 17/22 | 1.6-1.8 M NaCl | > 5 mg PF4 per kg of body weight |  |  |  |  |  | 
B2 | 21/22 | 1/22 |  | ~100% |  |  | reduce migration | 73% | 16 of 22 and 16/22 | 6/22 | 1-1.4 M NaCl |  | completely blocked | 100 fold | completely blocked | around 2.5 ng/ml | capable of reducing tumor growth | lower affinity than PF4
